This note sets out measurements from US20020160955A1 (published 2002).

Changes are numbered by the printed parent chain.

In general, IC50 refers to the point on the concentration scale where inhibition reaches its midpoint. A higher IC50 goes with a need for much substance.

Common to all, as to assay: competitive phage ELISA
A general note: ELISA stands for enzyme-linked immunosorbent assay.

Test [1] concerns the target T1, IGF-I Y60A (G1S-A70V background) displayed on phage (human; bacteriophage M13).
T1 construct: monovalent M13 phage display; not shown: M13 gene III protein fragment (residues 249-406), the phage display carrier, and its junction to IGF-I
T1 chain: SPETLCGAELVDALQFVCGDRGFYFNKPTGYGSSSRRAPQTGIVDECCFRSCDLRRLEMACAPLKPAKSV
The gist of the method: (§1)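 Phage, normalized to a maximal ELISA signal of 0.2-0.4 per mutant, were premixed with threefold serial dilutions of soluble competitor in 0.5% Tween 20/PBS and incubated 1 h at room temperature on immobilized target.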

The target in test [2] is T2, IGF-I K65A (G1S-A70V background) displayed on phage (human; bacteriophage M13).
T2 construct: monovalent M13 phage display; not shown: M13 gene III protein fragment (residues 249-406), the phage display carrier, and its junction to IGF-I
T2 chain: T1 chain with A60Y, K65A
In a few lines: as §1

Test [3] concerns the target T3, IGF-I F23A (G1S-A70V background) displayed on phage (human; bacteriophage M13, not fully specified; Displayed monovalently on M13 phage as a C-terminal fusion to the gene III fragment, which is left out of the letters.).
T3 construct: monovalent M13 phage display; not shown: Display carrier: M13 gene III fragment (residues 249-406) and its junction
T3 chain: T1 chain with F23A, A60Y
The gist of the method: as §1

Test [4] addresses T4, IGF-I D12A (G1S-A70V background) displayed on phage (human; bacteriophage M13).
T4 construct: monovalent M13 phage display
T4 chain: T1 chain with D12A, A60Y
In a few lines: as §1

Test [5] addresses T5, IGF-I L14A (G1S-A70V background) displayed on phage (human; bacteriophage M13).
T5 construct: monovalent M13 phage display
T5 chain: T1 chain with L14A, A60Y
In a few lines:
as §1

For test [6], the target named is T6, IGF-I S69A (G1S-A70V background) displayed on phage (human; bacteriophage M13, UniProt P69168 267-424).
T6 chain: T1 chain with A60Y, S69A
The gist of the method:
as §1

For test [7], the target named is T7, IGF-I L64A (G1S-A70V background) displayed on phage (human; bacteriophage M13).
T7 construct: monovalent M13 phage display; not shown: M13 gene III protein fragment (residues 249-406), the phage display carrier, and its junction to IGF-I
T7 chain: T1 chain with A60Y, L64A
The gist of the method: as §1

Test [8] addresses IGF-I V70A (G1S-A70V background) displayed on phage (human; bacteriophage M13, UniProt P69168 267-424). In a few lines: as §1
In test [9] the target is T8, IGF-I K27A (G1S-A70V background) displayed on phage (human; bacteriophage M13, not fully specified; Displayed monovalently on M13 phage as a C-terminal fusion to the gene III fragment, which is left out of the letters.).
T8 construct: monovalent M13 phage display; not shown: Display carrier: M13 gene III fragment (residues 249-406) and its junction
T8 chain: T1 chain with K27A, A60Y
The gist of the method:
as §1

B1: human IGFBP-1 (other, UniProt P08833 26-259, looked up)
chain: APWQCAPCSAEKLALCPPVSASCSEVTRSAGCGCCPMCALPLGAACGVATARCARGLSCRALPGEQQPLHALTRGQGACVQESDASAPHAAEAGSPESPESTEITEEELLDNFHLMAPSEEDHSILWDAISTYDGSKALHVTNIKKWKEPCRIELYRVVESLAKAQETSGEEISKFYLPNCNKNGFYHSRQCETSMDGEAGLCWCVYPWNGKRIPGSPEIRGDPNCQIYFNVQN
notes: secreted recombinant protein purified from conditioned medium
For B1, the IC50 in [1] came out at 6.6 nM; in test [2] it was 12.4 nM; in test [3] it was 10.9 nM; in [4] it was 4.3 nM; in test [5] it was 36.7 nM; in [6], 12.8 nM. Moreover, the IC50 stood at 12.1 nM in test [7], 19.1 nM in test [8] and 12.8 nM in [9].
